Results as given in the supplement of paper PMC10567573.

B1: CDS2 (parent)
chain: LIVVTQSHLVIHNLFEGMIWFIVP
B2: ISL2 (parent)
chain: HYPFLGAMGDHSKKKPGTAMCVGC

Variants of: B1
Test: protein stability index of a GFP-peptide fusion (GPS, HEK-293T) (PSI 1-6); higher = more stable
Conditions: c terminus: a fixed tail appended
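Further: lentivirally expressed fusions sorted by FACS into six bins by GFP to DsRed ratio, PSI derived from sequencing read proportions per bin multiplied by bin number.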

Row | Variant | protein stability index
1 | E16I | 3.46
2 | E16P | 2.48
3 | E16K | 2.35
4 | E16T | 2.83
5 | E16Q | 2.01
6 | E16G | 2.9
7 | E16D | 3.44
8 | E16Y | 2.74
9 | E16N | 3.06
10 | E16W | 3.98
11 | E16L | 4.5
12 | E16A | 4.16
13 | E16F | 2.52
14 | E16M | 3.76
15 | E16S | 3.4
16 | I11V | 2.52
17 | I11G | 2.27
18 | I11R | 2.2
19 | I11C | 3.04
20 | I11L | 2.48
21 | I11M | 2.84
22 | I11F | 3.51
23 | I11S | 3.42
24 | I11K | 4.09
25 | I11N | 4.03

Row | Variant | protein stability index
26 | I11W | 1.04
27 | I11H | 1.57
28 | I11D | 3.58
29 | I11E | 2.39
30 | I19F | 2.89
31 | I19A | 2.65
32 | I19L | 1.84
33 | I19Q | 3.36
34 | I19K | 2.41
35 | I19W | 3.61
36 | I19G | 3.67
37 | I19S | 2.75
38 | I19P | 3.75
39 | I19M | 2.95
40 | T5R | 3.33
41 | T5P | 3.86
42 | T5S | 5.49
43 | T5W | 2.72
44 | T5C | 4.62
45 | T5A | 2.62
46 | T5M | 3.04
47 | T5Y | 2.99
48 | T5L | 2.71
49 | T5Q | 3.1
50 | T5V | 2.65

Row | Variant | protein stability index
51 | T5G | 4.08
52 | T5E | 2.95
53 | T5H | 3.62
54 | T5I | 2.58
55 | T5K | 2.97
56 | G17D | 2.93
57 | G17V | 3.48
58 | G17P | 2.82
59 | G17M | 3.13
60 | G17R | 3.21
61 | G17L | 3.83
62 | G17N | 2.29
63 | G17A | 3.15
64 | G17W | 2.35
65 | G17Q | 2.63
66 | G17I | 1.85
67 | G17S | 3.9
68 | G17Y | 1.68
69 | G17E | 2.55
70 | G17H | 2.8
71 | V10Q | 4.6
72 | V10L | 1.96
73 | V10G | 1.83
74 | V10K | 2.67
75 | V10C | 2.23

Row | Variant | protein stability index
76 | V10D | 1.79
77 | V10T | 2.15
78 | V10W | 2.46
79 | V10H | 2.88
80 | V10P | 1.52
81 | V10I | 4.56
82 | V10F | 3.01
83 | V10M | 2.77
84 | V10A | 3.19
85 | W20C | 3.16
86 | W20S | 3.64
87 | W20F | 2.83
88 | W20D | 2.87
89 | W20E | 2.38
90 | W20Q | 4.66
91 | W20N | 3.08
92 | W20G | 2.19
93 | W20P | 2.6
94 | W20K | 1.61
95 | W20H | 3.23
96 | W20M | 2.28
97 | W20I | 3.21
98 | W20V | 3.06
99 | W20R | 2.57
100 | N13G | 2.9

Row | Variant | protein stability index
101 | N13C | 3.03
102 | N13R | 2.08
103 | N13P | 3.48
104 | N13S | 3.02
105 | N13H | 1.83
106 | N13K | 2.81
107 | N13E | 2.93
108 | N13A | 4.23
109 | N13Y | 2.44
110 | N13T | 1.61
111 | N13D | 2.63
112 | N13M | 4.66
113 | N13V | 3.45
114 | N13F | 2.94
115 | N13L | 3.44
116 | N13I | 4.67
117 | H12R | 1.5
118 | H12I | 1.85
119 | H12L | 3.7
120 | H12K | 2.6
121 | H12P | 1.35
122 | H12T | 4.2
123 | H12G | 3.39
124 | H12C | 3.91
125 | H12D | 3.58

Row | Variant | protein stability index
126 | H12M | 2.67
127 | H12A | 3.32
128 | I2G | 2.41
129 | I2F | 1.75
130 | I2H | 3.16
131 | I2C | 1.83
132 | I2M | 2.66
133 | I2S | 2.69
134 | I2V | 3.01
135 | I2K | 4.33
136 | I2W | 3.71
137 | I2D | 1.02
138 | I2L | 3.84
139 | I2T | 2.77
140 | I2R | 3.79
141 | F21K | 4.85
142 | F21Y | 2.52
143 | F21N | 3.24
144 | F21I | 3.28
145 | F21S | 2.8
146 | F21T | 3.04
147 | F21W | 1.6
148 | F21R | 2.94
149 | F21L | 3.42
150 | F21E | 1.96

Row | Variant | protein stability index
151 | F21C | 3.4
152 | F21G | 2.49
153 | F21V | 2.39
154 | V4W | 1.83
155 | V4G | 3.49
156 | V4Q | 2.74
157 | V4R | 3.46
158 | V4C | 3.17
159 | V4M | 3.42
160 | V4N | 3.21
161 | V4F | 2.09
162 | V4P | 2.36
163 | V4T | 3.04
164 | V4S | 4.44
165 | V4D | 3.18
166 | V4K | 4.3
167 | M18A | 4.48
168 | M18D | 3.2
169 | M18F | 3.12
170 | M18W | 2.66
171 | M18S | 2.98
172 | M18K | 1.96
173 | M18C | 4.05
174 | M18Y | 3.67
175 | M18Q | 2.68

Row | Variant | protein stability index
176 | M18E | 4.08
177 | M18V | 4.17
178 | M18R | 1.99
179 | M18P | 2.89
180 | M18G | 2.85
181 | M18I | 3.09
182 | Q6A | 2.85
183 | Q6P | 3.21
184 | Q6R | 1.46
185 | Q6N | 3.99
186 | Q6C | 2.42
187 | Q6M | 1.77
188 | Q6L | 4.3
189 | Q6D | 4.07
190 | Q6I | 2.71
191 | Q6V | 2.76
192 | Q6S | 2.58
193 | Q6E | 2.59
194 | Q6T | 2.85
195 | V3T | 2.85
196 | V3G | 3.92
197 | V3F | 3.18
198 | V3E | 2.45
199 | V3Y | 2.91
200 | V3K | 3.44

Row | Variant | protein stability index
201 | V3N | 2.96
202 | V3Q | 2.14
203 | V3W | 4.23
204 | V3I | 3.46
205 | V3L | 2.57
206 | V3H | 3.21
207 | V3R | 2.14
208 | V3P | 3.31
209 | V3S | 3.43
210 | L14W | 2.72
211 | L14I | 3.44
212 | L14A | 1.86
213 | L14T | 3.05
214 | L14F | 2.92
215 | L14Q | 2.25
216 | L14V | 2.71
217 | L14Y | 3.06
218 | L14G | 3.6
219 | L14D | 3.03
220 | L14K | 3.69
221 | L14E | 2.99
222 | L14P | 2.64
223 | L9Q | 3.56
224 | L9P | 5.08
225 | L9Y | 2.24

Row | Variant | protein stability index
226 | L9V | 2.3
227 | L9H | 1.56
228 | L9F | 1.48
229 | L9S | 1.96
230 | L9N | 2.36
231 | L9D | 2.62
232 | L9I | 1.84
233 | L9T | 3.82
234 | L9R | 2.9
235 | L9W | 2.91
236 | L9K | 3.33
237 | L9A | 2.29
238 | H8E | 2.35
239 | H8N | 3.36
240 | H8I | 2.81
241 | H8C | 3.31
242 | H8D | 4.35
243 | H8V | 4.43
244 | H8R | 2.81
245 | H8L | 3.47
246 | H8T | 2.91
247 | H8W | 2.77
248 | H8F | 3.38
249 | H8G | 4.59
250 | H8M | 2.48

Row | Variant | protein stability index
251 | H8S | 4.08
252 | S7H | 2.31
253 | S7D | 2.68
254 | S7R | 4.35
255 | S7Y | 3.16
256 | S7T | 4.59
257 | S7F | 2.19
258 | S7L | 3.2
259 | S7I | 2.54
260 | S7P | 4.35
261 | S7K | 2.27
262 | S7V | 3.79
263 | S7N | 2.81
264 | S7G | 3.76
265 | S7W | 3.44
266 | I22M | 3.27
267 | I22K | 3.07
268 | I22A | 2.07
269 | I22F | 2.83
270 | I22L | 3.99
271 | I22N | 1.8
272 | I22E | 3.14
273 | I22D | 4.26
274 | L1M | 3.16
275 | L1A | 3.25

Row | Variant | protein stability index
276 | L1Q | 4.19
277 | L1N | 2.67
278 | L1D | 3.86
279 | L1S | 3.83
280 | L1V | 3.56
281 | L1P | 3.61
282 | L1I | 3.5
283 | L1H | 3.11
284 | L1Y | 3.07
285 | L1F | 3.17
286 | L1R | 3.84
287 | L1T | 4.15
288 | F15P | 2.8
289 | F15R | 2.03
290 | F15M | 4.48
291 | F15K | 3.4
292 | F15N | 3.64
293 | F15L | 2.41
294 | F15W | 4.64
295 | F15I | 3.58
296 | F15V | 2.72
297 | F15Q | 2.25
298 | F15S | 3.64
299 | F15E | 2.13

Variants of: B2
Test: as above
Conditions: c terminus: a fixed tail appended

Row | Variant | protein stability index
300 | C24K | 4.12
301 | C24I | 2.8
302 | C24G | 3.17
303 | C24Y | 2.75
304 | C24M | 2.52
305 | C24A | 3.09
306 | C24N | 3.64
307 | C24Q | 4.02
308 | C24T | 2.83
309 | C24E | 4.5
310 | C24D | 4.13
311 | C24S | 3.46
312 | C24H | 3.42
313 | C24P | 3.82
314 | C24W | 1.68
315 | C24L | 2.48
316 | C24V | 3.24
317 | C24F | 2.23

Row | Variant | protein stability index
318 | C24R | 3.52
319 | G23I | 2.16
320 | G23Q | 2.57
321 | G23V | 2.28
322 | G23F | 2.44
323 | G23N | 2.72
324 | G23E | 3.25
325 | G23T | 2.96
326 | G23S | 2.76
327 | G23L | 1.8
328 | G23Y | 1.69
329 | G23H | 2.52
330 | G23R | 2.43
331 | G23P | 3.31
332 | G23W | 1.85
333 | G23M | 1.58
334 | G23K | 3.18
